{"source": "patent US20140011207", "about": "“PSA BINDING APTAMER AND METHOD FOR DIAGNOSIS OF PROSTATE CANCER” (National University Corporation Tokyo University of …, published 2014)", "binders": {"B1": {"name": "ΔPSap4#5 (ssDNA)", "DNA": "TTTTTAATTAAAGCTCGCCATCAAATAGCTTT"}, "B2": {"name": "ΔPSap2#16 (ssDNA)", "DNA": "TTTTTACTGTGAACTCGCCATCAAATATCTTT"}, "B3": {"name": "ΔPSap4#19 (ssDNA)", "DNA": "B1 DNA with A12G, T26A"}, "B4": {"name": "ΔPSap2#01 (ssDNA)", "DNA": "TTTTTGCCTACTGATTTCCTTTTTGAGCCTTT"}, "B5": {"name": "ΔPSap1#13 (ssDNA)", "DNA": "TTTTTAATATCAACTTGCCATAAAGGGCCTTT"}, "B6": {"name": "ΔPSap1#3 (ssDNA)", "DNA": "TTTTTACTTAAGGATTTCCTTTTTTAGCCTTT"}, "B7": {"name": "ΔPSap1#16 (ssDNA)", "DNA": "B2 DNA with C7A, G11C"}, "B8": {"name": "ΔPSap1#5 (ssDNA)", "DNA": "TTTTTCCTCACCGGGTAACTTCGTGGCCCTTT"}, "B9": {"name": "ΔPSap1#12 (ssDNA)", "DNA": "TTTTTAATATCACCCTTGTTTACTGTCCCTTT"}, "B10": {"name": "ΔPSap1#15 (ssDNA)", "DNA": "TTTTTGCCTAATGATTTCCCGGTTGTCTCTTT"}, "B11": {"name": "ΔPSap1#19 (ssDNA)", "DNA": "TTTTTACTTAATGATTTCACCGGTGGCCCTTT"}, "B12": {"name": "ΔPSap4#10 (ssDNA)", "DNA": "B1 DNA with A6T, A12G"}, "B13": {"name": "ΔPSap4#7 (ssDNA)", "DNA": "B1 DNA with A12G, A24G"}, "B14": {"name": "ΔPSap4#14 (ssDNA)", "DNA": "B1 DNA with A12G, T26G"}, "B15": {"name": "ΔPSap4#11 (ssDNA)", "DNA": "B1 DNA with A12G, G28A"}, "B16": {"name": "ΔPSap4#1 (ssDNA)", "DNA": "B1 DNA with A10C, A12G"}, "B17": {"name": "ΔPSap2#02 (ssDNA)", "DNA": "TTTTTAATTAAGGATTTCCCGGTTGTATCTTT"}, "B18": {"name": "ΔPSap2#18 (ssDNA)", "DNA": "B9 DNA with A9G, C13A, C15G"}}, "key": {"[1]": {"target": "T1, Prostate-specific antigen (PSA, KLK3) (Homo sapiens, UniProt P07288 P07288:25-261)", "T1 sequence (P07288 25-261, one chain of several)": "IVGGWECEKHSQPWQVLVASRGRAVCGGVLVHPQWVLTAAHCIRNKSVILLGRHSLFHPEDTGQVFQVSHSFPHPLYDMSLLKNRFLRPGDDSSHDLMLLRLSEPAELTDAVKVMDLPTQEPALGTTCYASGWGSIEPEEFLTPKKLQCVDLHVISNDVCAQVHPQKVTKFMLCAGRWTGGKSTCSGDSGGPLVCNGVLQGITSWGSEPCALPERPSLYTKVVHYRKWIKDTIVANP", "test": "ELONA; PSA immobilized on polystyrene plate; TBST with 5 mM KCl, 5 mM MgCl2, pH 7.4, room temp", "details": "tags: purified from human semen; Sigma-Aldrich and Scipac; label: 5'-FITC; predicted stem-loop", "procedure": "(§1) 100 μL amounts of PSA in PBS buffer (pH 7.4), at final concentration of 5 μg/mL, were added to a 96-well polystyrene plate. After 2 h incubation with gentle shaking at 37° C., the supernatant was removed and each well was washed with TBST buffer. Each well was filled with 100 μl of five-fold-diluted blocking reagent N102 and incubated with gentle shaking for 1 h at room temperature, and then washed three times. FITC-labeled aptamer was heat treated in TBS buffer as described above for folding. To each well 100 μL amounts of the FITC-labeled aptamer in TBST buffer (5 μM) were added and incubated for 1 h at room temperature. […] Each well was washed five times and BM chemiluminescence HRP substrate was added, then the HRP activity was measured by a multi label plate counter: Wallac 1420 ARVO MX (Perkin Elmer).\nPlate assay for detection of PSA was performed as described above with the following modifications. […] After incubation with HRP-conjugated anti-FITC antibody, chemiluminescence from HRP was measured.\nPlate assay was performed to measure PSA concentrations with ΔPSap4#5 selected using GA as the top oligonucleotide of the 4th-generation. […] Then, the PSA concentration was measured by detecting chemiluminescence from HRP-conjugated anti-FITC antibody that represented the binding of FITC-labeled ΔPSap4#5 against PSA immobilized on a well of polystyrene plate (n=2). […]"}, "[2]": {"target": "T1, Prostate-specific antigen (PSA, KLK3)", "test": "ELONA", "details": "tags: purified from human semen; Sigma-Aldrich and Scipac; label: 5'-FITC", "procedure": "100 μL amounts of PSA in PBS buffer (pH 7.4), at final concentration of 5 μg/mL, were added to a 96-well polystyrene plate. After 2 h incubation with gentle shaking at 37° C., the supernatant was removed and each well was washed with TBST buffer. Each well was filled with 100 μl of five-fold-diluted blocking reagent N102 and incubated with gentle shaking for 1 h at room temperature, and then washed three times. FITC-labeled aptamer was heat treated in TBS buffer as described above for folding. To each well 100 μL amounts of the FITC-labeled aptamer in TBST buffer (5 μM) were added and incubated for 1 h at room temperature. After washing three times, HRP-conjugated anti-FITC antibody was added to each well and incubated with gentle shaking for 1 h at room temperature. Each well was washed five times and BM chemiluminescence HRP substrate was added, then the HRP activity was measured by a multi label plate counter: Wallac 1420 ARVO MX (Perkin Elmer).\nIn order to carry out a post-SELEX screening of aptamers using GA with candidates, the five sequences pre-selected through SELEX were used as “parents” to produce a set of 20 oligonucleotide sequences using GA. These oligonucleotides were synthesized and the PSA-binding ability was evaluated by plate assay. The PSA-binding ability was measured by detection chemiluminescence from HRP-conjugated anti-FITC antibody that represented the binding of oligonucleotides against PSA immobilized on a well of polystyrene plate (n=2). The signal intensity was normalized with that of the top oligonucleotide in the 1st-generation. Then, the oligonucleotides were ranked according to PSA-binding ability, and top four ranked sequences were chosen to produce a next set of oligonucleotide sequences. The cycle of oligonucleotide synthesis, plate assay and evolution of the oligonucleotide sequences using GA was repeated three times, with one cycle corresponding to one generation when we assume this process to be the in silico evolution of the PSA-binding aptamer. After one cycle of GA operations, four 2nd-generation sequences, SEQ ID: Nos. 8 to 11, were obtained."}, "[3]": {"target": "T1, Prostate-specific antigen (PSA, KLK3)", "test": "ELONA; rank 1 of 1st generation; 1st generation up to 10-fold higher than parents", "details": "tags: purified from human semen; Sigma-Aldrich and Scipac; label: 5'-FITC", "procedure": "as §1\n(§2) In order to carry out a post-SELEX screening of aptamers using GA with candidates, the five sequences pre-selected through SELEX were used as “parents” to produce a set of 20 oligonucleotide sequences using GA. These oligonucleotides were synthesized and the PSA-binding ability was evaluated by plate assay. The PSA-binding ability was measured by detection chemiluminescence from HRP-conjugated anti-FITC antibody that represented the binding of oligonucleotides against PSA immobilized on a well of polystyrene plate (n=2). […]"}, "[4]": {"target": "T1, Prostate-specific antigen (PSA, KLK3)", "test": "ELONA; rank 2 of 1st generation", "details": "tags: purified from human semen; Sigma-Aldrich and Scipac; label: 5'-FITC", "procedure": "as §1, §2"}, "[5]": {"target": "T1, Prostate-specific antigen (PSA, KLK3)", "test": "ELONA; rank 3 of 1st generation", "details": "tags: purified from human semen; Sigma-Aldrich and Scipac; label: 5'-FITC", "procedure": "as §1, §2"}, "[6]": {"target": "T1, Prostate-specific antigen (PSA, KLK3)", "test": "ELONA; rank 4 of 1st generation", "details": "tags: purified from human semen; Sigma-Aldrich and Scipac; label: 5'-FITC", "procedure": "as §1, §2"}, "[7]": {"target": "T1, Prostate-specific antigen (PSA, KLK3)", "test": "ELONA; rank 5 of 1st generation", "details": "tags: purified from human semen; Sigma-Aldrich and Scipac; label: 5'-FITC", "procedure": "as §1, §2"}, "[8]": {"target": "T1, Prostate-specific antigen (PSA, KLK3)", "test": "ELONA; rank 6 of 1st generation", "details": "tags: purified from human semen; Sigma-Aldrich and Scipac; label: 5'-FITC", "procedure": "as §1, §2"}, "[9]": {"target": "T1, Prostate-specific antigen (PSA, KLK3)", "test": "ELONA; rank 7 of 1st generation", "details": "tags: purified from human semen; Sigma-Aldrich and Scipac; label: 5'-FITC", "procedure": "as §1, §2"}}, "note": "Positions count from the first letter of the chain named.", "data": [{"binder": "B1", "values": [{"measurement": "Kd", "setting": "[1]", "result": 54, "unit": "nM"}]}, {"binder": "B2", "values": [{"measurement": "binding signal", "setting": "[2]", "result": "1480 CPS (normalized HRP chemiluminescence)"}]}, {"binder": "B3", "values": [{"measurement": "binding signal", "setting": "[2]", "result": "1220 CPS (normalized HRP chemiluminescence)"}]}, {"binder": "B4", "values": [{"measurement": "binding signal", "setting": "[2]", "result": "1170 CPS (normalized HRP chemiluminescence)"}]}, {"binder": "B5", "values": [{"measurement": "binding result", "setting": "[3]", "result": "binds"}]}, {"binder": "B6", "values": [{"measurement": "binding result", "setting": "[4]", "result": "binds"}]}, {"binder": "B7", "values": [{"measurement": "binding result", "setting": "[5]", "result": "binds"}]}, {"binder": "B8", "values": [{"measurement": "binding result", "setting": "[6]", "result": "binds"}]}, {"binder": "B9", "values": [{"measurement": "binding result", "setting": "[7]", "result": "binds"}]}, {"binder": "B10", "values": [{"measurement": "binding result", "setting": "[8]", "result": "binds"}]}, {"binder": "B11", "values": [{"measurement": "binding result", "setting": "[9]", "result": "binds"}]}, {"binder": "B12", "values": [{"measurement": "binding signal", "setting": "[2]", "result": "3300 CPS (normalized HRP chemiluminescence)"}]}, {"binder": "B13", "values": [{"measurement": "binding signal", "setting": "[2]", "result": "3260 CPS (normalized HRP chemiluminescence)"}]}, {"binder": "B14", "values": [{"measurement": "binding signal", "setting": "[2]", "result": "2510 CPS (normalized HRP chemiluminescence)"}]}, {"binder": "B15", "values": [{"measurement": "binding signal", "setting": "[2]", "result": "2150 CPS (normalized HRP chemiluminescence)"}]}, {"binder": "B16", "values": [{"measurement": "binding signal", "setting": "[2]", "result": "1800 CPS (normalized HRP chemiluminescence)"}]}, {"binder": "B17", "values": [{"measurement": "binding signal", "setting": "[2]", "result": "1550 CPS (normalized HRP chemiluminescence)"}]}, {"binder": "B18", "values": [{"measurement": "binding signal", "setting": "[2]", "result": "1490 CPS (normalized HRP chemiluminescence)"}]}]}
